# Laboratory results taken from patent US20250101120A1 (BEIJING SOLOBIO GENETECHNOLOGY, published 2025).
# T1: hFc-hFasL (fusion protein of human Fc fragment and human FasL extracellular region) (human, UniProt P48023 134-281)
# T1 construct: the order here follows the name hFc-hFasL; also called hFc-FasL; hFc-hFasL antigen; not shown: human Fc fragment tag
# T1 sequence: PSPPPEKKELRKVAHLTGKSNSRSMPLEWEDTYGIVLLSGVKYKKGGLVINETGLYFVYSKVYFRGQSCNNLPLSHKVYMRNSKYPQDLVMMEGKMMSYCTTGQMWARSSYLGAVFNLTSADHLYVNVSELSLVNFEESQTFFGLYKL
# Biological target: T1, hFc-hFasL (fusion protein of human Fc …)
# Test: ELISA, hFc-hFasL coated, antibody titrated, anti-human kappa-HRP (protocol of Example 3.2)
row,EC50,Binder
1,0.288 nM,"humFL-M88-4 (antibody, human IgG4, V domains shown, Humanized FL-M88) VH: QVQLVQSGAEVKKPGASVKVSCKGSGYTFTDYTIHWVRQAPGQGLEWMGVISTYQGDASYNQKFKGRVTMTVDKSTSTAYMELSSLRSEDTAVYYCARFPDWDYAMDYWGQGTLVTVSS VL: EIVMTQSPATLSVSPGERATLSCKASQSVDYDGDSYMNWYQQKPGQPPRLLIYAASNLESGIPARFSGSGSGTEFTLTISSLQSEDFAVYYCQHSRELPYTFGQGTKLEIK"
2,0.329 nM,"humFL-M88-17 (antibody, human IgG4, V domains shown, Humanized FL-M88) VH: QVQLVQSGAEVKKPGASVKVSCKGSGYTFTDYTIHWVRQAPGQGLEWMGVISTYQGDASYNQKFKGRVTMTVDKSTSTVYMELSSLRSEDTAVYYCARFPDWDYAMDYWGQGTLVTVSS VL: EIVMTQSPATLSVSPGERATLSCKASQSVDYDGDSYMNWYQQKPGQPPRLLIYAASNLESGIPARFSGSGSGTEFTLTISSLQSEDFAVYYCQQSRELPYTFGQGTKLEIK"
3,0.343 nM,"humFL-M88-11 (antibody, human IgG4, V domains shown, Humanized FL-M88) VH: QVQLVQSGAEVKKPGASVKVSCKGSGYTFTDYTIHWVRQAPGQGLEWMGVISTYQGDASYNQKFKGRVTMTVDKSTSTVYMELSSLRSEDTAVYYCARFPDWDYAMDYWGQGTLVTVSS VL: EIVMTQSPATLSVSPGERATLSCKASQSVDYDGDSYMNWYQQKPGQAPRLLIYAASNLESGIPARFSGSGSGTEFTLTISSLQSEDFAVYYCQHSRELPYTFGQGTKLEIK"

# Biological target: T1, hFc-hFasL (fusion protein of human Fc …)
# Test: cell-based or functional assay
"HepG2 IC50(nM), FasL antigen-induced cell apoptosis","Jurkat IC50(nM), FasL antigen-induced cell apoptosis",Binder
0.0333 nM,0.0294 nM,"humFL-M88-4 (antibody, human IgG4, V domains shown, Humanized FL-M88) VH: QVQLVQSGAEVKKPGASVKVSCKGSGYTFTDYTIHWVRQAPGQGLEWMGVISTYQGDASYNQKFKGRVTMTVDKSTSTAYMELSSLRSEDTAVYYCARFPDWDYAMDYWGQGTLVTVSS VL: EIVMTQSPATLSVSPGERATLSCKASQSVDYDGDSYMNWYQQKPGQPPRLLIYAASNLESGIPARFSGSGSGTEFTLTISSLQSEDFAVYYCQHSRELPYTFGQGTKLEIK"

# Biological target: T1, hFc-hFasL (fusion protein of human Fc …)
# Test: cell-based or functional assay
# Remark: another data set of the same source
"HepG2 IC50(nM), FasL antigen-induced cell apoptosis","Jurkat IC50(nM), FasL antigen-induced cell apoptosis",Binder
0.028 nM,0.035 nM,"humFL-M54-1 (antibody, human IgG4, V domains shown) VH: QVQLVQSGAEVKKPGSSVKVSCKASGYTFTRFDISWVRQAPGQGLEWIGWIFPGDGSSQYNENFKGRATLTTDKSTSTAYMELSSLRSEDTAVYFCARSLISTAMFDHWGQGTLVTVSS VL: EIVMTQSPATLSVSPGERATLSCRASKSVSTSDFSYIHWYQQKPGQPPRLLIFLASHLESGIPARFSGSGSGTEFTLTISSLQSEDFAVYYCQHSRELPRTFGQGTKVEIK"
0.025 nM,0.044 nM,"humFL-M54-8 (antibody, human IgG4, V domains shown) VH: QVQLVQSGAEVKKPGSSVKVSCKASGYTFTRFDISWVRQAPGQGLEWMGWIFPGDGSSQYNENFKGRATITTDKSTSTAYMELSSLRSEDTAVYFCARSLISTAMFDHWGQGTLVTVSS VL: EIVMTQSPATLSVSPGERATLSCRASKSVSTSDFSYIHWYQQKPGQPPRLLIYLASHLESGIPARFSGSGSGTEFTLTISSLQSEDFAVYYCQHSRELPRTFGQGTKVEIK"
0.035 nM,,"humFL-M54-3 (antibody, human IgG4, V domains shown) VH: QVQLVQSGAEVKKPGSSVKVSCKASGYTFTRFDISWVRQAPGQGLEWMGWIFPGDGSSQYNENFKGRATITTDKSTSTAYMELSSLRSEDTAVYFCARSLISTAMFDHWGQGTLVTVSS VL: EIVMTQSPATLSVSPGERATLSCRASKSVSTSDFSYIHWYQQKPGQPPRLLIFLASHLESGIPARFSGSGSGTEFTLTISSLQSEDFAVYYCQHSRELPRTFGQGTKVEIK"
0.029 nM,0.028 nM,"humFL-M54-13 (antibody, human IgG4, V domains shown) VH: QVQLVQSGAEVKKPGSSVKVSCKASGYTFTRFDISWVRQAPGQGLEWMGWIFPGDGSSQYNENFKGRATITTDKSTSTAYMELSSLRSEDTAVYFCARSLISTAMFDHWGQGTLVTVSS VL: EIVMTQSPATLSVSPGERATLSCRASKSVSTSDFSYIHWYQQKPGQAPRLLIYLASHLESGIPARFSGSGSGTEFTLTISSLQSEDFAVYYCQHSRELPRTFGQGTKVEIK"
0.026 nM,0.035 nM,"humFL-M54-9 (antibody, human IgG4, V domains shown) VH: QVQLVQSGAEVKKPGSSVKVSCKASGYTFTRFDISWVRQAPGQGLEWMGWIFPGDGSSQYNENFKGRVTLTTDKSTSTAYMELSSLRSEDTAVYFCARSLISTAMFDHWGQGTLVTVSS VL: EIVMTQSPATLSVSPGERATLSCRASKSVSTSDFSYIHWYQQKPGQPPRLLIYLASHLESGIPARFSGSGSGTEFTLTISSLQSEDFAVYYCQHSRELPRTFGQGTKVEIK"
0.028 nM,0.037 nM,"humFL-M54-11 (antibody, human IgG4, V domains shown) VH: QVQLVQSGAEVKKPGSSVKVSCKASGYTFTRFDISWVRQAPGQGLEWIGWIFPGDGSSQYNENFKGRATLTTDKSTSTAYMELSSLRSEDTAVYFCARSLISTAMFDHWGQGTLVTVSS VL: EIVMTQSPATLSVSPGERATLSCRASKSVSTSDFSYIHWYQQKPGQAPRLLIYLASHLESGIPARFSGSGSGTEFTLTISSLQSEDFAVYYCQHSRELPRTFGQGTKVEIK"
0.028 nM,0.059 nM,"humFL-M54-7 (antibody, human IgG4, V domains shown) VH: QVQLVQSGAEVKKPGSSVKVSCKASGYTFTRFDISWVRQAPGQGLEWMGWIFPGDGSSQYNENFKGRATLTTDKSTSTAYMELSSLRSEDTAVYFCARSLISTAMFDHWGQGTLVTVSS VL: EIVMTQSPATLSVSPGERATLSCRASKSVSTSDFSYIHWYQQKPGQPPRLLIYLASHLESGIPARFSGSGSGTEFTLTISSLQSEDFAVYYCQHSRELPRTFGQGTKVEIK"
0.031 nM,,"humFL-M54-6 (antibody, human IgG4, V domains shown) VH: QVQLVQSGAEVKKPGSSVKVSCKASGYTFTRFDISWVRQAPGQGLEWIGWIFPGDGSSQYNENFKGRATLTTDKSTSTAYMELSSLRSEDTAVYFCARSLISTAMFDHWGQGTLVTVSS VL: EIVMTQSPATLSVSPGERATLSCRASKSVSTSDFSYIHWYQQKPGQPPRLLIYLASHLESGIPARFSGSGSGTEFTLTISSLQSEDFAVYYCQHSRELPRTFGQGTKVEIK"
0.03 nM,0.053 nM,"humFL-M54-4 (antibody, human IgG4, V domains shown) VH: QVQLVQSGAEVKKPGSSVKVSCKASGYTFTRFDISWVRQAPGQGLEWMGWIFPGDGSSQYNENFKGRVTLTTDKSTSTAYMELSSLRSEDTAVYFCARSLISTAMFDHWGQGTLVTVSS VL: EIVMTQSPATLSVSPGERATLSCRASKSVSTSDFSYIHWYQQKPGQPPRLLIFLASHLESGIPARFSGSGSGTEFTLTISSLQSEDFAVYYCQHSRELPRTFGQGTKVEIK"
0.027 nM,0.052 nM,"humFL-M54-5 (antibody, human IgG4, V domains shown) VH: QVQLVQSGAEVKKPGSSVKVSCKASGYTFTRFDISWVRQAPGQGLEWMGWIFPGDGSSQYNENFKGRVTITADKSTSTAYMELSSLRSEDTAVYFCARSLISTAMFDHWGQGTLVTVSS VL: EIVMTQSPATLSVSPGERATLSCRASKSVSTSDFSYIHWYQQKPGQPPRLLIFLASHLESGIPARFSGSGSGTEFTLTISSLQSEDFAVYYCQHSRELPRTFGQGTKVEIK"
0.034 nM,0.017 nM,"humFL-M54-10 (antibody, human IgG4, V domains shown) VH: QVQLVQSGAEVKKPGSSVKVSCKASGYTFTRFDISWVRQAPGQGLEWMGWIFPGDGSSQYNENFKGRVTITADKSTSTAYMELSSLRSEDTAVYFCARSLISTAMFDHWGQGTLVTVSS VL: EIVMTQSPATLSVSPGERATLSCRASKSVSTSDFSYIHWYQQKPGQPPRLLIYLASHLESGIPARFSGSGSGTEFTLTISSLQSEDFAVYYCQHSRELPRTFGQGTKVEIK"
0.032 nM,0.015 nM,"humFL-M54-12 (antibody, human IgG4, V domains shown) VH: QVQLVQSGAEVKKPGSSVKVSCKASGYTFTRFDISWVRQAPGQGLEWMGWIFPGDGSSQYNENFKGRATLTTDKSTSTAYMELSSLRSEDTAVYFCARSLISTAMFDHWGQGTLVTVSS VL: EIVMTQSPATLSVSPGERATLSCRASKSVSTSDFSYIHWYQQKPGQAPRLLIYLASHLESGIPARFSGSGSGTEFTLTISSLQSEDFAVYYCQHSRELPRTFGQGTKVEIK"
0.023 nM,0.038 nM,"humFL-M54-14 (antibody, human IgG4, V domains shown) VH: QVQLVQSGAEVKKPGSSVKVSCKASGYTFTRFDISWVRQAPGQGLEWMGWIFPGDGSSQYNENFKGRVTLTTDKSTSTAYMELSSLRSEDTAVYFCARSLISTAMFDHWGQGTLVTVSS VL: EIVMTQSPATLSVSPGERATLSCRASKSVSTSDFSYIHWYQQKPGQAPRLLIYLASHLESGIPARFSGSGSGTEFTLTISSLQSEDFAVYYCQHSRELPRTFGQGTKVEIK"
0.031 nM,0.028 nM,"humFL-M54-2 (antibody, human IgG4, V domains shown) VH: QVQLVQSGAEVKKPGSSVKVSCKASGYTFTRFDISWVRQAPGQGLEWMGWIFPGDGSSQYNENFKGRATLTTDKSTSTAYMELSSLRSEDTAVYFCARSLISTAMFDHWGQGTLVTVSS VL: EIVMTQSPATLSVSPGERATLSCRASKSVSTSDFSYIHWYQQKPGQPPRLLIFLASHLESGIPARFSGSGSGTEFTLTISSLQSEDFAVYYCQHSRELPRTFGQGTKVEIK"
0.03 nM,0.015 nM,"humFL-M54-15 (antibody, human IgG4, V domains shown) VH: QVQLVQSGAEVKKPGSSVKVSCKASGYTFTRFDISWVRQAPGQGLEWMGWIFPGDGSSQYNENFKGRVTITADKSTSTAYMELSSLRSEDTAVYFCARSLISTAMFDHWGQGTLVTVSS VL: EIVMTQSPATLSVSPGERATLSCRASKSVSTSDFSYIHWYQQKPGQAPRLLIYLASHLESGIPARFSGSGSGTEFTLTISSLQSEDFAVYYCQHSRELPRTFGQGTKVEIK"
